Source: publication PMC9213253 (The Journal of Biological Chemistry, 2022)

Key:
AstC (ACIAD1284) = AstC (ACIAD1284) (Acinetobacter baylyi, UniProt Q6FCQ2); conditions: 10 mM DAP; 5 mM 2-oxoglutarate; 200 μM PLP; 200 μM NAD+; pH 9.0; 25 °C
Dat (ACIAD1210) = Dat (ACIAD1210) (Acinetobacter baylyi, UniProt Q6FCX2); conditions: 10 mM DAP; 5 mM 2-oxoglutarate; 200 μM PLP; 200 μM NAD+; pH 9.0; 25 °C
purified protein [1] = substrate: NC(=O)c1ccc[n+]([C@@H]2O[C@H](COP(=O)(O)OP(=O)(O)OC[C@H]3O[C@@H](n4cnc5c(N)ncnc54)[C@H](O)[C@@H]3O)[C@@H](O)[C@H]2O)c1; assay: purified protein; conditions: pH 9.0, 25 °C, varied: cofactor
purified protein [2] = substrate: NC(=O)c1ccc[n+]([C@@H]2O[C@H](COP(=O)(O)OP(=O)(O)OC[C@H]3O[C@@H](n4cnc5c(N)ncnc54)[C@H](OP(=O)(O)O)[C@@H]3O)[C@@H](O)[C@H]2O)c1; assay: purified protein; conditions: pH 9.0, 25 °C, varied: cofactor
purified protein [3] = substrate: NCCC=O; assay: purified protein; conditions: pH 9.0, 25 °C
purified protein [4] = substrate: NCC[C@H](N)C(=O)O; assay: purified protein; type: biochemical, Acinetobacter baylyi; conditions: 100 mM Tris-HCl pH 8.5, 200 μM PLP, 2.5 mM CaCl2, 25 °C
purified protein [5] = substrate: NCCCN; assay: purified protein; conditions: 200 μM PLP
purified protein [6] = substrate: NCCCC(=O)O; assay: purified protein; conditions: 500 μM 2-oxoglutarate, 200 μM PLP, 5 mM NAD+, pH 9.0, 25 °C
purified protein [7] = substrate: O=C(O)CCC(=O)C(=O)O; assay: purified protein; conditions: 4 mM GABA, 200 μM PLP, 5 mM NAD+, pH 9.0, 25 °C
[8] = 1 mM NAD+, BetB, 2.5 mM CaCl2, pH 9.0, 25 °C
[9] = 500 μM 2-oxoglutarate, 5 mM NAD+, pH 9.0, 25 °C

Chain of AstC (ACIAD1284) (Q6FCQ2 1-403): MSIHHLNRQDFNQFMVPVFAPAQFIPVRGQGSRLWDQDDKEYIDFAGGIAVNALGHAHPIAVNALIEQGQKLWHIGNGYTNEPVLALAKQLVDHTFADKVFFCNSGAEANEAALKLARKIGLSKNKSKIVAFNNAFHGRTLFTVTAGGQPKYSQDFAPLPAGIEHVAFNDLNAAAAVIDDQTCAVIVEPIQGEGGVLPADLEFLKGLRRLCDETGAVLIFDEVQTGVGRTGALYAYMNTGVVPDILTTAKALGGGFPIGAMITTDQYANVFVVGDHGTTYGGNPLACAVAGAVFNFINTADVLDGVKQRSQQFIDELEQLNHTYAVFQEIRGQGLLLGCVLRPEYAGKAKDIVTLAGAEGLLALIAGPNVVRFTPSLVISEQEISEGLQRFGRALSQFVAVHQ
Chain of Dat (ACIAD1210) (Q6FCX2 1-456): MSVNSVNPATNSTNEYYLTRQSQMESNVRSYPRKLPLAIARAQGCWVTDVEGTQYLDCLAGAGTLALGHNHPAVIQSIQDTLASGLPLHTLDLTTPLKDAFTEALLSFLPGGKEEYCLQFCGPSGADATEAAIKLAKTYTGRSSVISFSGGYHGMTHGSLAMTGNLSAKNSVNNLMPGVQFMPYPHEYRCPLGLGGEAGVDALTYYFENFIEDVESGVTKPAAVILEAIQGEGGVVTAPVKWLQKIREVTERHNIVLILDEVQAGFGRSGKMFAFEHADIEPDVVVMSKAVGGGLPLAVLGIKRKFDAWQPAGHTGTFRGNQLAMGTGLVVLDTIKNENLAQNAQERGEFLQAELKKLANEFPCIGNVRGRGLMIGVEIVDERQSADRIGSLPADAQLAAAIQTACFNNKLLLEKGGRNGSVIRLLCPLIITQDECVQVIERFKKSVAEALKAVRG

`NCCCN` [DAP] was tested, and the “BetB-coupled assay, NADH at 340 nm (aminotransferase)” value (AstC (ACIAD1284)) was “activity of AstC and Dat was too low to determine their kinetic parameters” and the “BetB-coupled assay, NADH at 340 nm (aminotransferase)” value (Dat (ACIAD1210)) was “activity of AstC and Dat was too low to determine their kinetic parameters”.

B1: GabD-like (ACIAD0960) (Acinetobacter baylyi ADP1) (protein)
chain: MAYATVNPYTGETLKEFPFATEQEVKAAIDAGYTAFTTWKDSSFATRAEVLNKAAKILRDKTDYYAKFLTLEMGKLFKEAQGEVEICAQIFEYYAKHAEELLAPTKLSTANKEINATIYYEPQGIVMAVEPWNFPFYQIARILSAQLAAGNTVILKHASIVPQSANAFEQLLLDAGLPQGAFKNLYMQHEHIPLVLNDHRVCGVALTGSEGAGAEVAAHAGKALKKSTLELGGSDAFIVLKDADLEKTAQLAVSGRHSNAGQVCTASKRFIVVDEVYDQFVELYKQGVAKLKAGDPMDPDTTLAPLCSQDAADQLKKQVEKAKAAGATVEAIGAPVPEQGAFFQPLLMTDIQEDNEARYWEFFGPVTQLYRAKDEADAIRIANDSPFGLGGSVYTADHARGVEVAKQIHTGMVYINHPTTSQADLPFGGVGRSGYGRELIDLGLKEFVNHKLIAITDIDAKL
With B1 the Km (purified protein [1]; 15 mM 3AP) was 4507 ± 363 µM, the kcat (purified protein [1]; 15 mM 3AP) was 1.68 ± 0.04 s⁻¹ and the kcat/Km (purified protein [1]; 15 mM 3AP) was 370 M⁻¹ s⁻¹. The Km (purified protein [2]; 15 mM 3AP) was 3718 ± 1138 µM and the kcat/Km (purified protein [2]; 15 mM 3AP) was 1000 M⁻¹ s⁻¹.

B2: AdhA (ACIAD3339) (Acinetobacter baylyi ADP1) (protein)
chain: MGSLMKAAVVTAFNQPLEIKDVEIPKVTSGKVLVKMIATGVCHTDLHAMHGDWPIKPSLPFIPGHEGVGEVVEIGEGITHLKIGDTVGVPWLYSACGHCDHCYAGWETLCKQQQNSGYSVNGSFAEYCLADGEYVGVIPEGVDLLEIAPILCAGVTVYKGLKMTEAKTGDWVAISGIGGLGHVAVQYAKTMGFNVVAIDVDDSKLELAKQLGADVGINALKVDVKEEVLKATGEGCHGVLVTAVSPKAFEQAVSVVRRGGTMVLNGLPPGKFDLSIFDMVLDGITVRGSIVGTRLDLKEALDIAARGKVKAHISVEPLENINDIFERMEQGKIDGRIVIDLKL
Molecule B2 has a Km (purified protein [1]; 2 mM 3AP) of 1803 ± 305 µM, a kcat/Km (purified protein [1]; 2 mM 3AP) of 520 M⁻¹ s⁻¹ and a Km (purified protein [3]; 9 mM NAD+) of 141 ± 28 µM.

B3: AcoD (ACIAD2018) (Acinetobacter baylyi ADP1) (protein)
chain: MRYIDPNQPGSKVQFKAQYENFIGGQWVPPVKGEYFGNSSPVDGKVFTQIPRSSVEDIELALDAAHKAKADWNKASPTVRSNVLLKIADRLEENLELLAVAETWENGKPIRETLAADIPLAIDHFRYFAGCIRAQEGGISEIDEDTIAYHFHEPLGVVGQIIPWNFPILMAAWKLAPALAAGNCIVLKPAEQTPSSILVLAELIQDLLPPGVLNIVNGYGAEVGRPLATNPRISKIAFTGSTKVGQMIMQYATENIIPVTLELGGKSPNIFFEDILDKEDDYLEKTLEGFAMFALNQGEVCTCPSRALVQESIADKFLEMAVERVKRIKTGHPLDTETMIGAQASKQQFDKILGCIDTGRNEGAQLLTGGDARHDVDGGFYIEPTIFKGNNSMKIFQEEIFGPVLSVTTFKDFDDAMRIANDTIYGLGAGVWSRSAHTSYRAGRAIEAGRVWTNCYHLYPAHAAFGGYKQSGIGRENHRMMLDHYQQTKNLLVSYSTKPMGFF
With B3 the Km (purified protein [1]; 20 mM 3AP) was 124 ± 49 µM, the kcat/Km (purified protein [1]; 20 mM 3AP) was 13000 M⁻¹ s⁻¹ and the Km (purified protein [3]; 2 mM NAD+) was 3559 ± 755 µM. The kcat (purified protein [3]; 2 mM NAD+) was 1.55 ± 0.35 s⁻¹ and the kcat/Km (purified protein [3]; 2 mM NAD+) was 440 M⁻¹ s⁻¹.

B4: BetB (ACIAD1009) (Acinetobacter baylyi ADP1) (protein)
chain: MSDVKLHRLYIHGQYTDATSGKTFDSINPATGEVIATIQQASQTDIEAAVKSAAEGQKVWAAKTAVERSRILRRAVDILRERNDELAQLETLDTGKAFSETSTVDIVTGADVLEYYAGLATAIQGEQVPLRESSFFYTRREPLGVVAGIGAWNYPIQIALWKSAPALAAGNAMIFKPSEVTPLTAFKLAEIYSEAGLPAGVFNVVQGAGREIGQWLTEHAVIEKISFTGGVETGKKVMASAAGSTLKEVTMELGGKSPLIICEDANLDRAADIAVMANFFSSGQVCTNGTRVFIPQRLKAAFEQAVVERVKRIRMGDPQHTDTNFGPLVSFPHMEKVLSYIESGKQQGAKVLIGGERATTGLLAQGAYVQPTVFTDCHDDMKIVQEEIFGPVMSILTYDTIEEAIERANNTNFGLAAGVVTQNISQAHQIIHQLEAGICWINTWGESPAEMPVGGYKESGVGRENGISTLNHYTRTKSIQVELGDYQSVF
With B4 the Km (purified protein [1]; 2.5 mM 3AP) was 20 ± 4 µM, the kcat/Km (purified protein [1]; 2.5 mM 3AP) was 74000 M⁻¹ s⁻¹ and the Km (purified protein [2]; 2.5 mM 3AP) was 339 ± 67 µM. For the same molecule, the kcat (purified protein [2]; 2.5 mM 3AP) was 2.43 ± 0.12 s⁻¹, the kcat/Km (purified protein [2]; 2.5 mM 3AP) was 7200 M⁻¹ s⁻¹ and the Km (purified protein [3]; 2 mM NAD+) was 82 ± 17 µM. It also gave a kcat (purified protein [3]; 2 mM NAD+) of 1.48 ± 0.16 s⁻¹ and a kcat/Km (purified protein [3]; 2 mM NAD+) of 18000 M⁻¹ s⁻¹.

B5: Ddc (ACIAD1211) (Acinetobacter baylyi ADP1) (protein)
chain: MVDFAEHRKALLCNDAASIAEYQSAMDEAVKAVAAWLQNDKMYTGGSIKELRSAIAFNPSKEGLGLHQSLGRMVELFLNKSLKVHHPYSLAHLHCPTMVTSQIAEVLINATNQSMDSWDQSPAGSLMEVQLIDWLRQKVGYGVGQAGVFTSGGTQSNLMGVLLARDWAIAKNFTDENGQPWSVQRDGIPAEAMRNIKVICSENAHFSVQKNMAMMGMGFQSVVTVPVNENAQMDVDALEKTMSHLQSEGKIVACVVATAGTTDAGAIDPLKKIREITTKYGAWMHIDAAWGGALILSNDYRDMLDGIELSDSITLDFHKHYFQSISCGAFLLKDEANYRFMHYEAEYLNSAYDEEHGVPNLVSKSLQTTRRFDALKLWMTVEALGEELYGSMIDHGVKLTREVADYIKATEGLELLVEPQFASVLFRVVPDGYPVELIDTLNQNVADELFARGDANIGVTKVGAVQSLKMTTLSPVATLENVKGLLAMVLAESDRIKDSIAAGTYVPAID
In the case of B5, the Km (purified protein [4]) is reported as 1585 ± 257 µM, the kcat (purified protein [4]) is reported as 12.1 ± 1.1 s⁻¹ and the kcat/Km (purified protein [4]) is reported as 7600 M⁻¹ s⁻¹. The Km (purified protein [5]; [8]) was 710 ± 113 µM, the kcat (purified protein [5]; [8]) was 0.009 s⁻¹ and the kcat/Km (purified protein [5]; [8]) was 13 M⁻¹ s⁻¹.

B6: GabT (ACIAD3446) (Acinetobacter baylyi ADP1) (protein)
chain: MDTKHSALNQRKQQATPRGVGVMCQWYADKAENATIWDAEGNTYIDFAGGIAVLNTGHRHPKVLAAVKAQLERFTHTAYQVTPYESYVALAERINELAPIAGPAKTTFFTTGAEAVENAVKIARCYTGRQGIITFGNGFHGRSFMTMAMTGKTAPYKRDFGLMPGGVFHARYPVESRGISVDDALESIENIFSEDVAPHDVAAIVLEPVQGEGGFNVVPADFLKRLRALCDKHGILLVADEVQTGFARTGKLYAMDHYETKADLITMAKSLGGGFPISGVVGRAEVMDAPNPGGLGGTYAGNPVAVAAAHAVIDAIQEEKLCERANELGAELVHVLKGLQQSTDQVITDIRALGSMVAAEFETAEQAKAVQNYAMQNGLLLLTCGKYGNVIRFLYPLTIPVEQFRSGLDILKQGVASLATDHTTQAIG
Work on B6 yielded a Km (purified protein [6]) of 399 ± 40 µM, a kcat (purified protein [6]) of 0.48 ± 0.021 s⁻¹ and a kcat/Km (purified protein [6]) of 1200 M⁻¹ s⁻¹. The Km (purified protein [5]; [9]) was 4356 ± 1014 µM, the kcat (purified protein [5]; [9]) was 0.22 s⁻¹ and the kcat/Km (purified protein [5]; [9]) was 51 M⁻¹ s⁻¹. It also gave a Km (purified protein [7]) of 58 ± 7 µM and a kcat/Km (purified protein [7]) of 8300 M⁻¹ s⁻¹.
